Drawing on PMC5980749, this text covers percent of total NusG recovered in the ribosomal pellet and stoichiometry N for one substance.

For the assay, the target named is Wild-type E. coli 70S ribosomes, purified from strain MRE600 (E. coli (endogenous in MRE600)) (UniProt P0A7R5). Description: co-sedimentation.

A word on the stoichiometry N: it is a count of units in the complex or per binding partner. In turn, “Escherichia coli transcription factor NusG, His-tagged, wild type (from UniProt P0AFG0 1-181) (natural protein)” yielded a percent of total NusG recovered in the ribosomal pellet of 19% and a stoichiometry N of 1 NusG per 70S.
